From US20250101133A1 (published 2025)

Assays:
Experiment in all cases: SPR
[1] = target: T1, recombinant human NEDP1 protein (human, UniProt Q96LD8 1-212)
T1 chain: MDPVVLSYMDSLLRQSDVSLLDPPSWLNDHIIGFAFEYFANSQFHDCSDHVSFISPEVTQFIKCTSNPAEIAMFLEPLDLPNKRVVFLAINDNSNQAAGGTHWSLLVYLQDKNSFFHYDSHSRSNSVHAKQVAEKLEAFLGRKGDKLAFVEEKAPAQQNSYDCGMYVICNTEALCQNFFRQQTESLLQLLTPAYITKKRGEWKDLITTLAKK

[2] = target: Nb19
[3] = target: Nb6
[4] = target: Nb12
[5] = target: Nb20

B1: AbR2DP12, purified His6-tagged nanobody (VHH)
VHH: QVQLQESGGGLVQAGGSLRLSCAASGSTSSFNVMAWYHQAPGKQRESVASITSGGITVYRDSVKGRFAISSDNAKNTVFLQMNSLKPEDTGVYYCGGVVDGRVYRGQGTQVTVSS
For B1, which Kd [1] is on record?
Its Kd is less than 0.01 nM.

B2: AbR2DP35, purified His6-tagged nanobody (VHH)
VHH: QVQLQESGGGLVQPGGSLTLSCAASGVMFSTGVMGWYRQAPGKQREAVAAITSGGLTTYKDSVKGRFAISRDNTKSTGYLQMNRLRPEDTAVYYCNVRGYWGQGTQVTVSS
B2 was tested. Which Kd [1] did it give?
Its Kd is less than 0.01 nM.

B3: AbR2DP46, purified His6-tagged nanobody (VHH)
VHH: QVQLQESGGGLVQAGGSLRLSCAASGSPFSIGTMAWYRQAPGNQRASVAAITRGGATTYANSVKGRFTVSRDNAKNTVYLQMNSLKPEDTAAYYCSVWAGDRAYWGQGTQVTVSS
B3 was tested. Which Kd [1] did it give?
Its Kd is 6.98 nM.

B4: human NEDP1 (enzyme)
chain: T1 chain
For B4, which Kd [2] is on record?
Its Kd is 0.196 nM.

And the Kd [3]?
Its Kd is less than 0.01 nM.

And the Kd [4]?
Its Kd is 0.33 nM.

What about the Kd [5] of the same binder?
Its Kd is 0.203 nM.

B5: AbR2DP47, purified His6-tagged nanobody (VHH)
VHH: QVQLQESGGGLVEPGGSLRLSCAASGSISSINVMAWYRQAPGKQRESVAAISSFGITTYSETVKGRFTASRDNAKNTMYLQMNNLKPEDTAVYYCKGPNTDWGQGTQVTVSS
Which Kd [1] does the source give for B5 here?
Its Kd is 5.39 nM.
